Test results taken from patent publication US20220162259A1, “PEPTIDE COMPLEX AND PRODUCTION METHOD THEREFOR, AND USE OF SAID PEPTIDE COMPLEX” (KANEKA CORPORATION, priority 2019, published 2022).
Numbered stars: 1 amine (or outer) side, 2 acyl side, 3 side chain; on linkers, the order of the positions; unused ones are H or OH. Bridge positions count the residues as written; N and C are the ends. Square brackets hold non-standard residues; d marks the D form. Ends that are not written are not given here. Peptide text beside a SMILES is read from it. * marks the point of attachment. X1 = NC(N)=NCCNC(=O)CCOCC(COCCC(=O)NCCN=C(N)N)(COCCC(=O)NCCN=C(N)N)NC(=O)CON=C(C[*:1])C[*:2]; FITC = O=C1OC2(c3ccc(O)cc3Oc3cc(O)ccc32)c2ccc(NC(=S)*)cc21; Ahx = NCCCCCC(=O)O

Tested on: HeLa cells
Experiment: Evaluation of cell-membrane permeability (flow cytometry of FITC-labelled peptide complexes)
Assay type: cell-based, Human
Details: for Mode of fluorescence intensity, 0 hour of culture / Mode of fluorescence intensity, 1 hour of culture: 2 μM peptide complex, flow cytometer; for Mode of fluorescence intensity, 0 hour of culture: living (propidium iodide-negative) cells; for Mode of fluorescence intensity, 1 hour of culture: 37° C., 5% CO2, living (propidium iodide-negative) cells; for Level of cell-membrane permeation compared with Comparative Example 1: at 1 hour of culture, versus peptide complex of Comparative Example 1
Method: HeLa cells (Human cervix adenocarcinoma cells) were cultured for 1 hour in a cell culture containing 2 μM of the peptide complex synthesized in Example 1 or 2 or Comparative Example 1 under conditions of 5% (v/v) CO2 and 37° C. For culturing the HeLa cells, FluoroBrite D-MEM (obtained from ThermoFisher Co.) (supplemented with 10% (v/v) FCS (fetal calf serum) and 10% (v/v) GlutaMax (obtained from ThermoFisher Co.)) was used.
Next, the surfaces of the cells were washed with D-PBS (−) (supplemented with heparin (20 units/mL)), followed by recovery of the cells. The cells were suspended in D-PBS(−) (supplemented with 0.5% (v/v) BSA (bovine serum albumin), 200 mM EDTA (ethylenediaminetetraacetic acid), and 0.2% (v/v) propidium iodide (obtained from Sigma-Aldrich Co.)). A flow cytometer (BD FACS AriaIII) was used to measure fluorescence intensity. Upon flow cytometry analysis, the mode of fluorescence intensity was calculated for a population of living cells excluding dead cells that were propidium iodide-positive. As a control, dimethyl sulfoxide (DMSO) not containing the peptide complex was tested in the same manner.

Compound	Mode of fluorescence intensity, 0 hour of culture	Mode of fluorescence intensity, 1 hour of culture	Level of cell-membrane permeation compared with Comparative Example 1
CC[C@H](C)[C@@H]1NC(=O)[C@H](Cc2ccc(O)cc2)NC(=O)[C@H](CC(C)C)NC(=O)[C@H](CCSC)NC(=O)[C@@H](NC(=O)CCCCCNC(=S)Nc2ccc3c(c2)C(=O)OC32c3ccc(O)cc3Oc3cc(O)ccc32)CSCC(=NOCC(=O)NC(COCCC(=O)NCCN=C(N)N)(COCCC(=O)NCCN=C(N)N)COCCC(=O)NCCN=C(N)N)CSC[C@@H](C(N)=O)NC(=O)CNC(=O)[C@H](C(C)C)NC(=O)[C@H](CO)NC(=O)[C@H](Cc2ccccc2)NC(=O)[C@H](Cc2ccc(O)cc2)NC(=O)[C@@H]2CCCN2C(=O)[C@H](C(C)C)NC1=O [Comparative Example 1, reference compound] ({FITC-Ahx}-CMLYIVPYFSVGC-NH2; linker 1-13 via X1)	66.6	412	–
Example 1: FITC-labelled cyclic peptide CMLYIVPYFSVGC with cell-membrane-permeability-imparting group G6 (two dendritic units, six guanidino groups) bound by oxime ligation ([Ahx]CMLYIVPYFSVGC-NH2; not fully specified (bridges); numbers in words are those of the source; also: cyclic, mode not given here, FITC label, place not given here, G6 guanidino dendron bound by oxime ligation, place not given here)	60	730	higher levels of cell-membrane permeation
Example 2: FITC-labelled cyclic peptide CMLYIVPYFSVGC with cell-membrane-permeability-imparting group G9 (three dendritic units, nine guanidino groups) bound by oxime ligation (not fully specified (N-terminus, C-terminus, bridges); also: cyclic, mode not given here, FITC label, place not given here, G9 guanidino dendron bound by oxime ligation, place not given here)	65.8	877	higher levels of cell-membrane permeation
